Results from patent US20080064059A1.

Tests used:
[1] = molecular target: glycomyoglobin containing β-GlcNAc-serine at position 4 (Gly4TAG mutant myoglobin, C-terminal His6 tag) (UniProt P02185); assay: ELISA-like assay, 200 ng immobilized myoglobin, biotinylated BSII, streptavidin-alkaline phosphatase, absorbance at 405 nm; reference: wild-type myoglobin
[2] = molecular target: glycomyoglobin containing GalNAc-α-threonine at position 4 (myoglobin 4TAG mutant, C-terminal 6x His tag) (UniProt P02185); assay: enzyme-linked lectin-binding assay (ELLA), immobilized myoglobin samples, biotinylated lectin, streptavidin-alkaline phosphatase, pNPP at 405 nm; reference: equivalent concentrations of tyrosine-myoglobin
Chain of glycomyoglobin containing GalNAc-α-threonine at position 4 (myoglobin 4TAG mutant, C-terminal 6x His tag) (P02185 other isoform, or with tags, fused parts or gaps mutant): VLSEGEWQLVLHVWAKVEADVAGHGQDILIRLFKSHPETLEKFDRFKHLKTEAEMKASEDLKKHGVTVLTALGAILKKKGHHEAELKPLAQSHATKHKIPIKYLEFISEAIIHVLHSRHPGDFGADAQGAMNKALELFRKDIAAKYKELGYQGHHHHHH

Chain of Vicia Villosa lectin (VVL), biotinylated conjugate (P56625 whole entry): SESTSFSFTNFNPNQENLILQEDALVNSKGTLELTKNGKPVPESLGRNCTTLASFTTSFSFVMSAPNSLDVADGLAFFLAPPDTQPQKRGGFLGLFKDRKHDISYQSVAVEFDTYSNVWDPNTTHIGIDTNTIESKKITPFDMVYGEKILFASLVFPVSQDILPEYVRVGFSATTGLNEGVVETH
Chain of glycomyoglobin containing β-GlcNAc-serine at position 4 (Gly4TAG mutant myoglobin, C-terminal His6 tag) (P02185 other isoform, or with tags, fused parts or gaps mutant): as the sequence (P02185 other isoform, or with tags, fused parts or gaps mutant) above

## Bandeiraea simplicifolia II (BSII) lectin, biotinylated
[1]
  fold signal versus wild-type myoglobin: > 200 fold

## Dolichos Biflorus lectin (DBL), biotinylated conjugate (from UniProt P05045 23-275)
[2]
  fold signal increase versus tyrosine-myoglobin: 5 fold

## Vicia Villosa lectin (VVL), biotinylated conjugate (from UniProt P56625 1-185)
[2]
  fold signal increase versus tyrosine-myoglobin: 10 fold
